Several values for one entry are separate records, joined by “and”; a condition that tells them apart may be missing. Equal values may be shown once. Values belong to the molecule of their own block, whether it stands above or below them.
Columns and labels:
PSA [1] = target: T1, PSA (Homo sapiens, UniProt P07288); assay: Proteolytic cleavage of protein substrates by PSA (SDS-PAGE, silver staining); assay type: biochemical; settings: 37°C; for time for degradation of half of the intact protein: substrate 1 µM (0.5 µM semenogelin I)
T1 construct: from tissue; host or cells: pooled human seminal fluid
Description: The major form of active PSA (isoform PSA-B) was purified from pooled human seminal fluid by immunoaffinity chromatography followed by anion exchange chromatography. Semenogelins I and II were isolated from human seminal fluid as previously described, but instead of alkylating the proteins, the reducing agent 30 mM dithiothreitol (Sigma-Aldrich, St. Louis, MO) was included in all buffers during purification. Semenogelins were stored in the purification buffer containing 2 M urea and 5 mM EDTA at −70°C. Prior to cleavage by PSA, the buffer was exchanged to 50 mM Tris, pH 7.7, containing 0.15 M NaCl (TBS), with Amicon Ultra centrifugal filter units (MW cut-off 30 kDa) (Millipore, Cork, Ireland) at 4°C, and protein concentration was determined by measuring absorbance at 280 nm.
Protein LoBind tubes (Eppendorf AG, Hamburg, Germany) were used in all protein degradation experiments.
PSA (0.2–1 µM) and 0.5–1 µM of each protein substrate were incubated at 37°C for 22 h in TBS buffer. During the incubation, samples of 15 µl were taken at different time points: 0 min, 10 min, 30 min, 2 h, 5 h and 22 h, and stored at −20°C before further analysis.
Immediately after each incubation, reducing 4× SDS-loading buffer (8% SDS), containing 1 M β-mercaptoethanol or 75 mM dithiothreitol, was added to each sample and proteins were denatured at 70°C for 10 min. The samples were immediately analyzed by SDS-PAGE or frozen at −20°C. Frozen samples were heated again at 70°C before loading on the gel. The cleavage of protein substrates by PSA, i.e., the disappearance of the full-length protein bands, was quantified from scanned images of silver stained gels by the measurement of relative optical densities of the protein bands using ImageJ [40].
Proteins were separated using the XCell SureLock Mini Cell system and pre-cast NuPAGE Novex 4–12% Bis-Tris Gels (both from Invitrogen, Carlsbad, CA). MES running buffer, pH 7.3, containing 50 mM MES [2-(N-morpholino)ethanesulfonic acid] (Sigma-Aldrich), 50 mM Tris base, 3.5 mM SDS and 1 mM EDTA was used. Dithiothreitol (0.5 mM) (Sigma-Aldrich) was added to the cathode buffer chamber.
Proteins were visualized either by silver staining or Western blotting. For silver staining (modified from), the gel was fixed for one hour at room temperature in 30% ethanol, containing 0.5% acetic acid, and rinsed with 20% ethanol and water for 10 min each. Then the gel was sensitized with 0.02% sodium thiosulfate for 1 min and rinsed twice with water. After 30 min incubation in 0.2% AgNO3, the gel was rinsed briefly with water and proteins were detected with development solution, containing 700 µl/l of 37% formaldehyde, 0.001% sodium thiosulfate and 3% anhydrous Na2CO3. The development reaction was finished with stop solution containing 5% Tris and 2.5% acetic acid.

PSA [2] = target: T1, PSA; settings: more than half of semenogelin I degraded; ref Malm and coworkers (2000), [16], [63]; cited from earlier work
Description: In the present study, we compared the proteolytic activity of PSA towards several protein substrates. As shown previously, semenogelins are cleaved very effectively by PSA. Malm and coworkers (2000) reported that more than half of semenogelin I is degraded after 15 min incubation with PSA [16], [63] and we observed this after 11 min incubation. Proteolysis of the other protein substrates, i.e., fibronectin, IGFBP-3, galectin-3 and nidogen-1, took much longer, reflecting the high substrate specificity of PSA for semenogelins. […] However, the detailed mechanism of the antiangiogenic activity of PSA remains unclear. Some of the proteolytically produced fragments of extracellular matrix (ECM) proteins act as endogenous angiogenesis inhibitors and may mediate the antiangiogenic effect of PSA. […] Although plasminogen ...

PSA [3] = target: T1, PSA; assay: N-terminal sequencing of nidogen-1 fragments generated by PSA; assay type: biochemical; settings: recombinant human nidogen-1, 1 µM, 2 µM PSA, 22 h, 37°C; Edman degradation; UniProt P14543 numbering
Description: For N-terminal sequencing, 1 µM (10 µg) nidogen-1 was first incubated with 2 µM (5 µg) PSA for 22 h at 37°C. Then the resulting protein fragments were separated by SDS-PAGE and electroblotted onto polyvinylidene-difluoride (PVDF) membrane. After staining with Coomassie Brilliant Blue the protein fragments were directly sequenced by Edman-degradation using the Procise 494A Sequencer (Perkin Elmer Applied Biosystems, Foster City, CA).

HUVECs = assay: HUVEC tube formation assay on Matrigel; assay type: cell-based, human; settings: two separate experiments
Description: Human umbilical vein endothelial cells (HUVECs) were isolated from umbilical cord veins and grown in Endothelial Cell Growth Medium (Promocell, Heidelberg, Germany) with 2% Ultroser G BioSepra serum substitute (PALL BioSepra, Cergy, France) and growth factors EGF and bFGF. For tube formation, HUVECs were grown on top of Matrigel (BD Biosciences) as described previously, [29].
To study the effect of PSA-cleaved protein fragments, 0.08 µM nidogen-1 or 0.4 µM galectin-3 (10 µg/ml each) were first incubated with 1 µM PSA for 24 h at 37°C in PBS (Lonza). Then PSA activity was blocked by one-hour incubation at room temperature with 2 µM monoclonal antibody 5C7 [38]. The mixture containing nidogen-1 or galectin-3 fragments with PSA blocked by antibody or the same amount of intact nidogen-1 or galectin-3 were added together with the cells onto gelled Matrigel and the cells were allowed to form tubular networks for 20 h. Control wells contained either PBS or 1 µM PSA. After overnight incubation, cell culture medium was collected from PBS and PSA control wells for SDS-PAGE and Western blotting. Images of tubular networks (100×magnification) were taken using an Axiovert 200 inverted light microscope connected to an AxioCam digital camera and visualized by AxioVision software (all from Zeiss, Göttingen, Germany).

[4] = 0.2 µM PSA, TBS, disappearance of full-length band

T1 sequence (P07288 25-261): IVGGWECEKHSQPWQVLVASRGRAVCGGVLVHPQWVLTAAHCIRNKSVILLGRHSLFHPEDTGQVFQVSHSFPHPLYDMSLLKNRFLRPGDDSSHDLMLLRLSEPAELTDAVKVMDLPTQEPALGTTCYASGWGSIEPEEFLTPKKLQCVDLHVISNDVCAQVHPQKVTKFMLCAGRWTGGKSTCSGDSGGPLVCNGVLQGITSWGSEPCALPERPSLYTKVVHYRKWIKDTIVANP

time for degradation of half of the intact protein (PSA [1]; [4]): 11 min
B1: semenogelin I: isolated from human seminal fluid (protein, UniProt P04279 24-462, looked up)
Semenogelin-1: QKGGSKGRLPSEFSQFPHGQKGQHYSGQKGKQQTESKGSFSIQYTYHVDANDHDQSRKSQQYDLNALHKTTKSQRHLGGSQQLLHNKQEGRDHDKSKGHFHRVVIHHKGGKAHRGTQNPSQDQGNSPSGKGISSQYSNTEERLWVHGLSKEQTSVSGAQKGRKQGGSQSSYVLQTEELVANKQQRETKNSHQNKGHYQNVVEVREEHSSKVQTSLCPAHQDKLQHGSKDIFSTQDELLVYNKNQHQTKNLNQDQQHGRKANKISYQSSSTEERRLHYGENGVQKDVSQSSIYSQTEEKAQGKSQKQITIPSQEQEHSQKANKISYQSSSTEERRLHYGENGVQKDVSQRSIYSQTEKLVAGKSQIQAPNPKQEPWHGENAKGESGQSTNREQDLLSHEQKGRHQHGSHGGLDIVIIEQEDDSDRHLAQHLNNDRNPLFT
incubation time with more than half degraded by PSA (PSA [2]): 15 min

time for degradation of half of the intact protein (PSA [1]; [4]): 80 min
B2: semenogelin II: isolated from human seminal fluid (protein, UniProt Q02383 24-582, looked up)
Semenogelin-2: QKGGSKGQLPSGSSQFPHGQKGQHYFGQKDQQHTKSKGSFSIQHTYHVDINDHDWTRKSQQYDLNALHKATKSKQHLGGSQQLLNYKQEGRDHDKSKGHFHMIVIHHKGGQAHHGTQNPSQDQGNSPSGKGLSSQCSNTEKRLWVHGLSKEQASASGAQKGRTQGGSQSSYVLQTEELVVNKQQRETKNSHQNKGHYQNVVDVREEHSSKLQTSLHPAHQDRLQHGPKDIFTTQDELLVYNKNQHQTKNLSQDQEHGRKAHKISYPSSRTEERQLHHGEKSVQKDVSKGSISIQTEEKIHGKSQNQVTIHSQDQEHGHKENKISYQSSSTEERHLNCGEKGIQKGVSKGSISIQTEEQIHGKSQNQVRIPSQAQEYGHKENKISYQSSSTEERRLNSGEKDVQKGVSKGSISIQTEEKIHGKSQNQVTIPSQDQEHGHKENKMSYQSSSTEERRLNYGGKSTQKDVSQSSISFQIEKLVEGKSQIQTPNPNQDQWSGQNAKGKSGQSADSKQDLLSHEQKGRYKQESSESHNIVITEHEVAQDDHLTQQYNEDRNPIST

cleavage site of PSA in nidogen-1 (PSA [3]): GVVF^380 ↓ SYNTD
time for degradation of 50% of the protein (PSA [1]; 0.2 µM PSA, 1 µM substrate, TBS, disappearance of full-length band): 22 h
size of nidogen-1 fragments formed by PSA (PSA [1]; 1 µM PSA, 0.5 µM recombinant human nidogen-1, 20 h): 85 kDa and 55 kDa
B3: nidogen-1: recombinant human nidogen-1, linker protein in the basement membrane (protein, UniProt P14543 29-1247, looked up)
Nidogen-1: LSRQELFPFGPGQGDLELEDGDDFVSPALELSGALRFYDRSDIDAVYVTTNGIIATSEPPAKESHPGLFPPTFGAVAPFLADLDTTDGLGKVYYREDLSPSITQRAAECVHRGFPEISFQPSSAVVVTWESVAPYQGPSRDPDQKGKRNTFQAVLASSDSSSYAIFLYPEDGLQFHTTFSKKENNQVPAVVAFSQGSVGFLWKSNGAYNIFANDRESVENLAKSSNSGQQGVWVFEIGSPATTNGVVPADVILGTEDGAEYDDEDEDYDLATTRLGLEDVGTTPFSYKALRRGGADTYSVPSVLSPRRAATERPLGPPTERTRSFQLAVETFHQQHPQVIDVDEVEETGVVFSYNTDSRQTCANNRHQCSVHAECRDYATGFCCSCVAGYTGNGRQCVAEGSPQRVNGKVKGRIFVGSSQVPIVFENTDLHSYVVMNHGRSYTAISTIPETVGYSLLPLAPVGGIIGWMFAVEQDGFKNGFSITGGEFTRQAEVTFVGHPGNLVIKQRFSGIDEHGHLTIDTELEGRVPQIPFGSSVHIEPYTELYHYSTSVITSSSTREYTVTEPERDGASPSRIYTYQWRQTITFQECVHDDSRPALPSTQQLSVDSVFVLYNQEEKILRYALSNSIGPVREGSPDALQNPCYIGTHGCDTNAACRPGPRTQFTCECSIGFRGDGRTCYDIDECSEQPSVCGSHTICNNHPGTFRCECVEGYQFSDEGTCVAVVDQRPINYCETGLHNCDIPQRAQCIYTGGSSYTCSCLPGFSGDGQACQDVDECQPSRCHPDAFCYNTPGSFTCQCKPGYQGDGFRCVPGEVEKTRCQHEREHILGAAGATDPQRPIPPGLFVPECDAHGHYAPTQCHGSTGYCWCVDRDGREVEGTRTRPGMTPPCLSTVAPPIHQGPAVPTAVIPLPPGTHLLFAQTGKIERLPLEGNTMRKTEAKAFLHVPAKVIIGLAFDCVDKMVYWTDITEPSIGRASLHGGEPTTIIRQDLGSPEGIAVDHLGRNIFWTDSNLDRIEVAKLDGTQRRVLFETDLVNPRGIVTDSVRGNLYWTDWNRDNPKIETSYMDGTNRRILVQDDLGLPNGLTFDAFSSQLCWVDAGTNRAECLNPSQPSRRKALEGLQYPFAVTSYGKNLYFTDWKMNSVVALDLAISKETDAFQPHKQTRLYGITTALSQCPQGHNYCSVNNGGCTHLCLATPGSRTCRCPDNTLGVDCIEQK
effect on tube formation, PSA-generated fragments (HUVECs; 10 µg/ml (0.08 µM nidogen-1, 0.4 µM galectin-3) precleaved by 1 µM PSA 24 h, PSA blocked by mAb 5C7, 20 h): did not have any effect on tube formation
effect on tube formation, full-length protein (HUVECs; 10 µg/ml (0.08 µM nidogen-1, 0.4 µM galectin-3), 20 h, HUVECs on Matrigel): did not have any effect on tube formation

From publication PMC4169579, “Proteolytic Activity of Prostate-Specific Antigen (PSA) towards Protein Substrates and Effect of Peptides Stimulating PSA Activity” (PLoS ONE, 2014)
